Columns and labels:
Assay in all cases: cell-based or functional assay
[1] = biological target: amphotropic MLV receptor on NIH3T3 mouse fibroblasts (mouse) (UniProt Q80UP8)
[2] = biological target: amphotropic receptor on human B and T cell lines (K422 and Jurkat) (human) (UniProt Q08357)
[3] = biological target: human epidermal growth factor receptor (human) (UniProt P00533)
[4] = biological target: EGF receptor on NIH3T3 cells and NIH3T3 clones transfected with EGF receptor expression constructs
[5] = biological target: ecotropic MLV receptor (mouse) (UniProt Q09143)
Sequence of ecotropic MLV receptor (mouse) (Q09143 whole entry): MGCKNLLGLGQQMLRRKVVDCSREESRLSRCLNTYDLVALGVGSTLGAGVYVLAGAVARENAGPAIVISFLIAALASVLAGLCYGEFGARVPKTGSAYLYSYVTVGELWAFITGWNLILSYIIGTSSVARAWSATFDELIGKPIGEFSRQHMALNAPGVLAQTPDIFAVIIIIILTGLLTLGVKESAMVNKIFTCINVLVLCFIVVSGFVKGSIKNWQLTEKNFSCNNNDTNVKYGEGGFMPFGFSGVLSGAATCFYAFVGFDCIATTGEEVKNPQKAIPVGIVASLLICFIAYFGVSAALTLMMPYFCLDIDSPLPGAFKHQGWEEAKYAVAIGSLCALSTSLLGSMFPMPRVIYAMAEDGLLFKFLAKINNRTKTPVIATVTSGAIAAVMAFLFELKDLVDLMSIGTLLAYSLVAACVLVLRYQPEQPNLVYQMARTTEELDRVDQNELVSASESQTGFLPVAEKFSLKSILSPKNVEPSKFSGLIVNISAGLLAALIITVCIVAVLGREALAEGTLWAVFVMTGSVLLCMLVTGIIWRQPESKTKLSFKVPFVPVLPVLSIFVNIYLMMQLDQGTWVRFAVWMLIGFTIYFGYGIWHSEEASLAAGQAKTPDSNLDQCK

Sequence of Moloney MLV ecotropic envelope glycoprotein (control envelope MO) (P03385 34-665 limits assumed): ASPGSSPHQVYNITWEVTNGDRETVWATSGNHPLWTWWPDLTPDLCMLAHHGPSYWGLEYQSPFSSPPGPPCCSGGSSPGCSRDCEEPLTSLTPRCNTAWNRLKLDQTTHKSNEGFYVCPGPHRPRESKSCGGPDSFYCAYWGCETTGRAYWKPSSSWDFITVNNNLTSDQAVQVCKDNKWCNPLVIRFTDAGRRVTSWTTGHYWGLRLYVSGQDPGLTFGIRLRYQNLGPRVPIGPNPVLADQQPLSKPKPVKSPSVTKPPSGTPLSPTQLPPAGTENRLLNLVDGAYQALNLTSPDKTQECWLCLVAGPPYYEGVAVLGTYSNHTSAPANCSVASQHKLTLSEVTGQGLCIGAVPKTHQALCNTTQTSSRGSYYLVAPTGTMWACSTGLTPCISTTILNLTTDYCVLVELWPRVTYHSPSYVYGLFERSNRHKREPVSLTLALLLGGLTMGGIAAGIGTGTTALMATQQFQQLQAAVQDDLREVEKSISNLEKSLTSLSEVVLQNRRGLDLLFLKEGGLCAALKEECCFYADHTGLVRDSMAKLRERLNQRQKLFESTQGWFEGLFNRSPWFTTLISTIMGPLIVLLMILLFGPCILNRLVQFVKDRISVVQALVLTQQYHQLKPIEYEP
Sequence of amphotropic MLV receptor on NIH3T3 mouse fibroblasts (mouse) (Q80UP8 whole entry): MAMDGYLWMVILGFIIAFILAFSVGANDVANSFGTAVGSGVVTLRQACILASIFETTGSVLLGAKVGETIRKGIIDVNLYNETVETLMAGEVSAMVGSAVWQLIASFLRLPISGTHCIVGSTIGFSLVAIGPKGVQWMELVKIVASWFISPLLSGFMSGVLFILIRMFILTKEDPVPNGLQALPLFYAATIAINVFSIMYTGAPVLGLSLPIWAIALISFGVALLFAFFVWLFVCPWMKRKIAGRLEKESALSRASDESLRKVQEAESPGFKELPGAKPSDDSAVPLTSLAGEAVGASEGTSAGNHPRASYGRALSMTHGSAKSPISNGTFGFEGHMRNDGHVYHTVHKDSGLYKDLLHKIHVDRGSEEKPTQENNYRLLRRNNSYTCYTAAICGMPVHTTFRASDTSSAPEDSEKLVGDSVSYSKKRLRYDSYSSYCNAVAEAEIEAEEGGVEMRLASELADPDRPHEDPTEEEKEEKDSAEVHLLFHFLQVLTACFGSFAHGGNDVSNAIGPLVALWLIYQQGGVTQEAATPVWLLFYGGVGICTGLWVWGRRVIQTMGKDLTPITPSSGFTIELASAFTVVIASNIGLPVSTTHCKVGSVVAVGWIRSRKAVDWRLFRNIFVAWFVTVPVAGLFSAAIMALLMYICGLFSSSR
Sequence of amphotropic receptor on human B and T cell lines (K422 and Jurkat) (human) (Q08357 whole entry): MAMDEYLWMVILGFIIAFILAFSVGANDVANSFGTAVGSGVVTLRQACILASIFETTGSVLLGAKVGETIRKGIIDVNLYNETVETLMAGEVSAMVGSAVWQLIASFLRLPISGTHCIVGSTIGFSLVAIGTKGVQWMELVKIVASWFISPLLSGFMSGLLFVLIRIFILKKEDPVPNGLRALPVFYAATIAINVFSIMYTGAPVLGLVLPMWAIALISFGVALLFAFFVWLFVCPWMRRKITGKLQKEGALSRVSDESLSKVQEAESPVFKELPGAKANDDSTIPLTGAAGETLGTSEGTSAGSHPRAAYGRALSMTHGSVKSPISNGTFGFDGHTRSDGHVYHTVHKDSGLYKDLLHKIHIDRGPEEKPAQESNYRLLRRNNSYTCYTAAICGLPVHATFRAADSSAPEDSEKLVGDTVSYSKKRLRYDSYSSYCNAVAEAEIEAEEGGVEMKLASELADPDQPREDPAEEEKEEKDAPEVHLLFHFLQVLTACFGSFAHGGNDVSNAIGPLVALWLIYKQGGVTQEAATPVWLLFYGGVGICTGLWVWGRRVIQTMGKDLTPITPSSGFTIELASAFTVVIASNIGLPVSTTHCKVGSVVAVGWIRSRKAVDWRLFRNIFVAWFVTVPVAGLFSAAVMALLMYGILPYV

Substance: amphotropic 4070A MLV envelope glycoprotein (control envelope A)
- titre on 3T3 (NIH3T3), lacZ-EFU/ml (row shifted by one column) [1]: 1e+07 lacZ-EFU/ml
- titre on 3T3/A (GP+EAM12, expressing amphotropic envelope), lacZ-EFU/ml (row shifted by one column) [1]: 100 lacZ-EFU/ml
- titre on 3T3/E (psi2, expressing MoMLV envelope), lacZ-EFU/ml (row shifted by one column) [1]: 1e+07 lacZ-EFU/ml

Substance: chimaeric EGF-4070A (EA) envelope glycoprotein (human EGF fused to the amphotropic 4070A MLV envelope at position +5) (from UniProt P03385 34-39; P01133 23-1207)
- titre on Jurkat cells (devoid of EGF.R), lacZ-EFU/ml [2]: 1000 lacZ-EFU/ml
- titre on K422 cells (devoid of EGF.R), lacZ-EFU/ml [2]: 10000 lacZ-EFU/ml
- inhibition of viral infection by EGF receptor expression on NR6 cells [3]: 100 fold
- titre on NR6-wt hEGF.R cells, + rEGF (pre-incubated with recombinant EGF), lacZ-EFU/ml [3]: 500000 lacZ-EFU/ml
- titre on NR6-wt hEGF.R cells, - rEGF, lacZ-EFU/ml [3]: 3000 lacZ-EFU/ml
- titre reduction on EGF receptor-positive human cells compared to control viruses with unmodified 4070A envelopes [3]: < 1e+07 fold

Substance: chimaeric EMO envelope glycoprotein (human EGF inserted in the Moloney MLV envelope SU glycoprotein at amino acid +6) (from UniProt P03385 34-39; P01133 23-1207; P03385 40-469)
- reduction of virus titre by EGF.R expression on mouse fibroblasts [4]: < 1000 fold
- titre on NIH3T3 cells with EGFR No. 10,000, lacZ-EFU/ml [4]: 100000 lacZ-EFU/ml
- titre on NIH3T3 cells with EGFR No. 80,000, lacZ-EFU/ml [4]: 10000 lacZ-EFU/ml
- titre on NIH3T3 cells with EGFR No. 400,000, lacZ-EFU/ml [4]: 1000 lacZ-EFU/ml
- titre on 3T3 (NIH3T3), lacZ-EFU/ml [5]: 100000 lacZ-EFU/ml
- titre on 3T3/A (GP+EAM12, expressing amphotropic envelope), lacZ-EFU/ml [5]: 100000 lacZ-EFU/ml
- titre on 3T3/E (psi2, expressing MoMLV envelope), lacZ-EFU/ml [5]: < 1 lacZ-EFU/ml
- titre on A431 cells with chloroquine, lacZ EFU/ml [3]: 225 lacZ EFU/ml
- titre on NR6-wt hEGF.R cells, + rEGF (pre-incubated with recombinant EGF), lacZ-EFU/ml [3]: 100000 lacZ-EFU/ml
- titre on NR6-wt hEGF.R cells, - rEGF, lacZ-EFU/ml [3]: 1000 lacZ-EFU/ml
- titre on TE671 cells with chloroquine, lacZ EFU/ml [3]: 46 lacZ EFU/ml

Substance: Moloney MLV ecotropic envelope glycoprotein (control envelope MO) (from UniProt P03385 34-665)
- titre on 3T3 (NIH3T3), lacZ-EFU/ml [5]: 1e+07 lacZ-EFU/ml
- titre on 3T3/A (GP+EAM12, expressing amphotropic envelope), lacZ-EFU/ml [5]: 1e+07 lacZ-EFU/ml
- titre on 3T3/E (psi2, expressing MoMLV envelope), lacZ-EFU/ml [5]: < 1 lacZ-EFU/ml
- titre on EJ.A1 cells, lacZ-EFU/ml [5]: 1e+06 lacZ-EFU/ml
